Data taken from paper PMC3003642, “DPI-ELISA: a fast and versatile method to specify the binding of plant transcription factors to DNA in vitro”.

Key:
AtWRKY33cDBD [1] = molecular target: T1, AtWRKY33cDBD (Arabidopsis thaliana, UniProt Q8S8P5 346-449); experiment: DPI-ELISA; DPI-ELISA: 2 pmol ds-bio DNA per well, crude E. coli extract in protein extraction buffer (HEPES, 100 mM salt per Additional file 1), 1 h, PBS-T washes pH 7.5; details: protein: recombinant; tags: C-terminal V5:His; label: 5' biotin (DPI-ELISA); 33P (EMSA)
T1 sequence (Q8S8P5 346-449): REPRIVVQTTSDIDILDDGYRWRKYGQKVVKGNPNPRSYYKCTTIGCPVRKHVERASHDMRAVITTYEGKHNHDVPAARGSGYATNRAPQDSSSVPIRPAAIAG

AtWRKY75DBD = AtWRKY75DBD (Arabidopsis thaliana, UniProt Q9FYA2 58-145); experiment: DPI-ELISA; up to 100 ug crude extract (data not shown); DPI-ELISA: 2 pmol ds-bio DNA per well, crude E. coli extract in protein extraction buffer (HEPES, 100 mM salt per Additional file 1), 1 h, PBS-T washes pH 7.5; details: protein: recombinant; tags: C-terminal V5:His; label: 5' biotin (DPI-ELISA); 33P (EMSA)
AtWRKY75DBD, sequence (Q9FYA2 58-145): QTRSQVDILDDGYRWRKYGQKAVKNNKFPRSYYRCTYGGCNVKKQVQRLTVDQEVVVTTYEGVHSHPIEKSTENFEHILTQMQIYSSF

AtWRKY50DBD = AtWRKY50DBD (Arabidopsis thaliana, UniProt Q8VWQ5 99-173); experiment: DPI-ELISA; not corrected for protein concentration in extract; DPI-ELISA: 2 pmol ds-bio DNA per well, crude E. coli extract in protein extraction buffer (HEPES, 100 mM salt per Additional file 1), 1 h, PBS-T washes pH 7.5; details: protein: recombinant; tags: C-terminal V5:His; label: 5' biotin (DPI-ELISA); 33P (EMSA)
AtWRKY50DBD, sequence (Q8VWQ5 99-173): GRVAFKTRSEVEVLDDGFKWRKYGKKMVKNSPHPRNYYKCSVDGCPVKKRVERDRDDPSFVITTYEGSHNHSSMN

AtWRKY11DBD [2] = molecular target: T2, AtWRKY11DBD (Arabidopsis thaliana, UniProt Q9SV15 229-325); experiment: EMSA; DPI-ELISA: 2 pmol ds-bio DNA per well, crude E. coli extract in protein extraction buffer (HEPES, 100 mM salt per Additional file 1), 1 h, PBS-T washes pH 7.5; details: protein: recombinant; tags: C-terminal V5:His; label: 5' biotin (DPI-ELISA); 33P (EMSA)
T2 sequence (Q9SV15 229-325): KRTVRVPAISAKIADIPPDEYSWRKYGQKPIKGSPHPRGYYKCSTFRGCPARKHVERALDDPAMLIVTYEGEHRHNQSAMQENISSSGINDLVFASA

AtWRKY33cDBD [3] = molecular target: T1, AtWRKY33cDBD; experiment: DPI-ELISA; also at higher protein amounts (data not shown); DPI-ELISA: 2 pmol ds-bio DNA per well, crude E. coli extract in protein extraction buffer (HEPES, 100 mM salt per Additional file 1), 1 h, PBS-T washes pH 7.5; details: protein: recombinant; tags: C-terminal V5:His; label: 5' biotin (DPI-ELISA); 33P (EMSA)
AtWRKY11DBD [4] = molecular target: T2, AtWRKY11DBD; experiment: competition DPI-ELISA; up to 50 pmol competitor; DPI-ELISA: 2 pmol ds-bio DNA per well, crude E. coli extract in protein extraction buffer (HEPES, 100 mM salt per Additional file 1), 1 h, PBS-T washes pH 7.5; details: protein: recombinant; tags: C-terminal V5:His
AtbZIP63 = molecular target: T3, AtbZIP63 (Arabidopsis thaliana, UniProt B9DGI8 1-314); experiment: EMSA; DPI-ELISA: 2 pmol ds-bio DNA per well, crude E. coli extract in protein extraction buffer (HEPES, 100 mM salt per Additional file 1), 1 h, PBS-T washes pH 7.5; details: protein: recombinant; tags: C-terminal V5:His; chain copies: 2; label: 5' biotin (DPI-ELISA); 33P (EMSA)
T3 sequence: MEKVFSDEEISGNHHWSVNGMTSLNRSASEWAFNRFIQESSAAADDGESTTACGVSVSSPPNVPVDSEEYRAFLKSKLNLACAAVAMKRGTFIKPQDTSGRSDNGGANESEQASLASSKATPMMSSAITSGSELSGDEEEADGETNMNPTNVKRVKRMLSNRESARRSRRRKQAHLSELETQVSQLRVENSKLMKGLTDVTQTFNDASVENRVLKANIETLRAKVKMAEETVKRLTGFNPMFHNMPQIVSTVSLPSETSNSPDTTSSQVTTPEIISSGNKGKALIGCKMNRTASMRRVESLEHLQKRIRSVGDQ

AtBPC2 [5] = molecular target: T4, AtBPC2 (Arabidopsis thaliana, UniProt Q9LDE2 1-279); experiment: DPI-ELISA; DPI-ELISA: 2 pmol ds-bio DNA per well, crude E. coli extract in protein extraction buffer (HEPES, 100 mM salt per Additional file 1), 1 h, PBS-T washes pH 7.5; details: protein: recombinant; tags: N-terminal His (pET32b-GW); label: 5' biotin
T4 sequence: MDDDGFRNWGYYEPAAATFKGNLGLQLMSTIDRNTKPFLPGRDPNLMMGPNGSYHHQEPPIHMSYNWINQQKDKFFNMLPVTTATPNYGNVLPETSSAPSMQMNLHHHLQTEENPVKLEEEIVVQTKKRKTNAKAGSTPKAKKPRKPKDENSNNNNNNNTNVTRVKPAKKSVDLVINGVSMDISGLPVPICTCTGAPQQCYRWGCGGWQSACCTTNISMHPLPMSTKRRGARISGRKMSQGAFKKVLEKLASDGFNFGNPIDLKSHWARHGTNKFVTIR

AtBPC2 [6] = molecular target: T4, AtBPC2; experiment: competition DPI-ELISA; 1000 pmol DNA reduced binding irrespective of sequence; DPI-ELISA: 2 pmol ds-bio DNA per well, crude E. coli extract in protein extraction buffer (HEPES, 100 mM salt per Additional file 1), 1 h, PBS-T washes pH 7.5; details: protein: recombinant; tags: N-terminal His (pET32b-GW)
AtBPC2 [7] = molecular target: T4, AtBPC2; experiment: competition DPI-ELISA; 100-1000 pmol competitor vs 2 pmol GABio; DPI-ELISA: 2 pmol ds-bio DNA per well, crude E. coli extract in protein extraction buffer (HEPES, 100 mM salt per Additional file 1), 1 h, PBS-T washes pH 7.5; details: protein: recombinant; tags: N-terminal His (pET32b-GW)

B1: W2-probe (W2Bio) (dsDNA)
DNA 1: AAATTATTCAGCCATCAAAAGTTGACCAATAAT
DNA 2: ATTATTGGTCAACTTTTGATGGCTGAATAATTT
In the case of B1, the binding result (AtWRKY33cDBD [1]) is reported as “binds”, the binding result (AtWRKY75DBD) is reported as “no binding” and the binding signal (AtWRKY50DBD) is reported as > 2 fold absorbance vs AtWRKY33cDBD.

B2: W2m-probe (W2mBio) (dsDNA)
DNA 1: AAATTATTCAGCCATCAAAAGTTACCCAATAAT
DNA 2: ATTATTGGGTAACTTTTGATGGCTGAATAATTT
B2: no binding (AtWRKY11DBD [2]); no binding (AtWRKY75DBD); no binding (AtWRKY33cDBD [3]).

B3: W2m-probe, non-biotinylated competitor (dsDNA)
DNA 1: AAATTATTCAGCCATCAAAAGTTACCCAATAAT
DNA 2: ATTATTGGGTAACTTTTGATGGCTGAATAATTT
B3: no binding (AtWRKY11DBD [4]).

B4: C-probe (C-box) (dsDNA)
DNA 1: AATTCTCCCTTATCTGACGTCAGCATCCGG
DNA 2: CCGGATGCTGACGTCAGATAAGGGAGAATT
B4: binds (AtbZIP63).

B5: Cm-probe (dsDNA)
DNA 1: AATTCTCCCTTATCTGCAGTCAGCATCCGG
DNA 2: CCGGATGCTGACTGCAGATAAGGGAGAATT
B5: no binding (AtbZIP63).

B6: GA-probe (GABio) (dsDNA)
DNA 1: TAAAGGAGAAAGAAAGAGAAAGAGAGTTTC
DNA 2: GAAACTCTCTTTCTCTTTCTTTCTCCTTTA
B6: binds (AtBPC2 [5]).

B7: GAm-probe, non-biotinylated competitor (dsDNA)
DNA 1: TAATGCAGCAAGTAAGACTACGACTGTTTC
DNA 2: GAAACAGTCGTAGTCTTACTTGCTGCATTA
B7: no binding (AtBPC2 [6]).

B8: GA-probe, non-biotinylated competitor (dsDNA)
DNA 1: TAAAGGAGAAAGAAAGAGAAAGAGAGTTTC
DNA 2: GAAACTCTCTTTCTCTTTCTTTCTCCTTTA
B8: binds (AtBPC2 [7]).

B9: GAm-probe (GAmBio) (dsDNA)
DNA 1: TAATGCAGCAAGTAAGACTACGACTGTTTC
DNA 2: GAAACAGTCGTAGTCTTACTTGCTGCATTA
B9: no binding (AtBPC2 [5]).
